Experimental data as given in the supplement of paper PMC6757056.
± gives the standard deviation of the averaged measurements.

B1: library; a variant is named by its letters at N, in order (parent)
chain: GCUGUCACCGGUGCUUGGUACGUUAUAUUCAGCCGGUCUGAUGAGUCUNNNNNNAGACGAAACAGC

What was measured:
[1] = variants of: B1; assay: normalized RNA/DNA level without ligand (relative to sTRSVctl = 100) (log10 (% of sTRSVctl)); HEK293T overexpressing SLC46A1; higher = less ribozyme self-cleavage, higher mRNA level; details: without (6R,S)-folinic acid; ligand present: no
How it was run: (§1)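 RNA level was computed as RNA reads over DNA reads divided by a spiked-in non-cleaving sequence or by the top sequences, then scaled and log-transformed. Scaling was ×100 with log10, the top group was 25 sequences, and the threshold was ≥100 DNA reads. The reads came from HEK293T cells transfected at 4 µg per 6-well well with ribozyme switch library plasmids (mCherry, or eGFP in some ligand experiments). Total RNA was extracted with EDTA 72 h after transfection, with any ligand added 1 h before it.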

[2] = variants of: B1; assay: normalized RNA/DNA level with ligand (relative to sTRSVctl = 100) (log10 (% of sTRSVctl)); HEK293T overexpressing SLC46A1; ligand concentration (+) RNA-Seq: 6 mM; higher = less ribozyme self-cleavage, higher mRNA level; details: with (6R,S)-folinic acid; ligand present: yes
How it was run: as §1

| Variant | normalized RNA/DNA level without ligand (log10) [1] | normalized RNA/DNA level with ligand (log10) [2] |
| --- | --- | --- |
| CUCAGG | 1.99 ± 0.021 | 2.03 ± 0.03 |
| CUCAGU | 2.024 ± 0.015 | 2.017 ± 0.015 |
| GUCAGU | 2.03 ± 0.026 | 2.04 ± 0.038 |
| UUCAGU | 1.9849 ± 0.0019 | 2.01 ± 0.043 |
| AUCAUA | 1.98 ± 0.02 | 1.99 ± 0.046 |
| CUCAUA | 1.99 ± 0.021 | 1.96 ± 0.055 |
| GUCAUA | 1.994 ± 0.0035 | 1.99 ± 0.055 |
| UUCAUA | 1.993 ± 0.0029 | 1.994 ± 0.002 |
| AUCAUC | 2.01 ± 0.022 | 1.98 ± 0.031 |
| GUCAUC | 2.0573 ± 0.0006 | 2.01 ± 0.0035 |
| UUCAUC | 2.01 ± 0.036 | 1.93 ± 0.043 |
| AUCAUG | 1.989 ± 0.009 | 2.005 ± 0.019 |
| CUCAUG | 2.003 ± 0.019 | 1.98 ± 0.023 |
| AUCAUU | 2.05 ± 0.024 | 2.03 ± 0.023 |
| CUCAUU | 2.08 ± 0.03 | 2.05 ± 0.026 |
| GUCAUU | 2.068 ± 0.0023 | 2.007 ± 0.0048 |
| UUCAUU | 2.025 ± 0.0078 | 2.01 ± 0.053 |
| AUCCAA | 1.958 ± 0.0049 | 1.98 ± 0.02 |
| CUCCAA | 2.03 ± 0.021 | 2.02 ± 0.025 |
| GUCCAA | 1.992 ± 0.011 | 2.01 ± 0.035 |

| Variant | normalized RNA/DNA level without ligand (log10) [1] | normalized RNA/DNA level with ligand (log10) [2] |
| --- | --- | --- |
| AUCCAC | 2.037 ± 0.013 | 2.02 ± 0.037 |
| CUCCAC | 2.0214 ± 0.0016 | 2.01 ± 0.046 |
| GUCCAC | 2.006 ± 0.011 | 2.011 ± 0.017 |
| UUCCAC | 2.01 ± 0.016 | 1.99 ± 0.033 |
| AUCCAG | 1.981 ± 0.0027 | 2 ± 0.031 |
| CUCCAG | 2.033 ± 0.011 | 2.0495 ± 0.00031 |
| UUCCAG | 1.91 ± 0.021 | 1.99 ± 0.034 |
| AUCCAU | 1.991 ± 0.0092 | 2.01 ± 0.042 |
| CUCCAU | 2.021 ± 0.011 | 2.03 ± 0.0026 |
| GUCCAU | 1.9991 ± 3.5e-06 | 2.008 ± 0.016 |
| UUCCAU | 1.99 ± 0.023 | 1.99 ± 0.049 |
| AUCCCA | 2.022 ± 0.0087 | 2.03 ± 0.036 |
| CUCCCA | 2.064 ± 0.0049 | 2.01 ± 0.061 |
| GUCCCA | 2.039 ± 0.0032 | 2.016 ± 0.0029 |
| UUCCCA | 2.034 ± 0.0022 | 2.03 ± 0.04 |
| AUCCCC | 2.047 ± 0.013 | 2.01 ± 0.05 |
| CUCCCC | 2.02 ± 0.033 | 2 ± 0.058 |
| UUCCCC | 2.058 ± 0.019 | 1.99 ± 0.022 |
| AUCCCG | 2.01 ± 0.0024 | 2.01 ± 0.029 |
| CUCCCG | 2.067 ± 0.0068 | 2.0818 ± 0.00082 |

| Variant | normalized RNA/DNA level without ligand (log10) [1] | normalized RNA/DNA level with ligand (log10) [2] |
| --- | --- | --- |
| GUCCCG | 2.004 ± 0.019 | 1.98 ± 0.024 |
| UUCCCG | 1.972 ± 0.0089 | 2 ± 0.038 |
| AUCCCU | 2.039 ± 0.0098 | 2.027 ± 0.012 |
| CUCCCU | 2.04 ± 0.044 | 2.05 ± 0.062 |
| GUCCCU | 2.05 ± 0.021 | 2.03 ± 0.03 |
| UUCCCU | 2.058 ± 0.011 | 2.06 ± 0.048 |
| AUCCGA | 1.998 ± 0.0056 | 2.023 ± 0.0052 |
| CUCCGA | 2.06 ± 0.024 | 2.01 ± 0.071 |
| AUCCGC | 2.054 ± 0.019 | 2.032 ± 0.005 |
| GUCCGC | 2.07 ± 0.011 | 2.045 ± 0.0035 |
| UUCCGC | 2.03 ± 0.026 | 2.01 ± 0.039 |
| AUCCGG | 2.0408 ± 0.002 | 2.05 ± 0.023 |
| UUCCGG | 2.025 ± 0.006 | 2.03 ± 0.031 |
| AUCCGU | 2.023 ± 0.011 | 2.01 ± 0.027 |
| CUCCGU | 2.042 ± 0.018 | 2.06 ± 0.044 |
| GUCCGU | 2.02 ± 0.021 | 2.022 ± 0.012 |
| UUCCGU | 2.0373 ± 0.0012 | 2.05 ± 0.048 |
| AUCCUA | 1.987 ± 0.0057 | 2.01 ± 0.079 |
